Assay [1] addresses T1, human Nectin-4 on cells (CHO cells transfected with human Nectin-4 cDNA); normal differentiated human … (human, UniProt Q96NY8 32-510).
T1 construct: whole, on cells
T1 sequence (looked up): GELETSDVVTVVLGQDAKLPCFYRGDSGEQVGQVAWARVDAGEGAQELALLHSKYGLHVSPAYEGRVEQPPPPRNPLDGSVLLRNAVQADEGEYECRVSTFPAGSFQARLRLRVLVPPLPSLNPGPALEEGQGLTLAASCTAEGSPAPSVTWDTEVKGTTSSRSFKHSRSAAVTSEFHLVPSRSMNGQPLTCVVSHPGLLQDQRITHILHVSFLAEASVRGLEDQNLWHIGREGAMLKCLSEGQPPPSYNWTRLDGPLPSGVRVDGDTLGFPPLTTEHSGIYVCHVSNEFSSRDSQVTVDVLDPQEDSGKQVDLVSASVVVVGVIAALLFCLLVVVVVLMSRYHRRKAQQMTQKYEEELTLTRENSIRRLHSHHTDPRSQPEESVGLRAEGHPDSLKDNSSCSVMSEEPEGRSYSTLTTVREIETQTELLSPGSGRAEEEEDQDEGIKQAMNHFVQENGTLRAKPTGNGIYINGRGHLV
The assay is described as follows: flow cytometry on normal differentiated human keratinocytes (NHEK), 8 pM-33 nM (FIG. 15). A general note: Flow cytometry measures light scatter and fluorescence of single cells or particles in a stream.

Assay [2] deals with T2, Nectin-1 extracellular domain Fc fusion recombinant protein (UniProt Q15223 31-355, limits assumed).
T2 construct: extracellular domain; also called Nec1-VCC; Nectin-1-VCC-Fc; not shown: Fc part
T2 sequence (looked up): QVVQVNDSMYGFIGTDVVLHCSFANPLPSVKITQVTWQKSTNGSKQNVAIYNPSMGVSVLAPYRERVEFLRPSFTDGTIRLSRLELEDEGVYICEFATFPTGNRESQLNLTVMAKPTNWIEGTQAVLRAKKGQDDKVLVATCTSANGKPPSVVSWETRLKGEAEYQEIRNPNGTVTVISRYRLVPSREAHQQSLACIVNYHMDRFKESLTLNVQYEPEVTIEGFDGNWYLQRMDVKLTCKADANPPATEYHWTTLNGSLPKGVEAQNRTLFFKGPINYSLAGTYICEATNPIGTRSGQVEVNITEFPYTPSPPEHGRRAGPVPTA
In words: ELISA, plate coated with Nec1-VCC, peroxidase-conjugated Ch-15A7.5 (FIG. 2).

In assay [3] the target is T3, N-terminal Flag-tagged human Nectin-4 expressed on transfected MDA-MB231 cells (human, UniProt Q96NY8 32-510).
T3 construct: whole, on cells; also called PVRL4; not shown: N-terminal Flag tag
T3 sequence (looked up): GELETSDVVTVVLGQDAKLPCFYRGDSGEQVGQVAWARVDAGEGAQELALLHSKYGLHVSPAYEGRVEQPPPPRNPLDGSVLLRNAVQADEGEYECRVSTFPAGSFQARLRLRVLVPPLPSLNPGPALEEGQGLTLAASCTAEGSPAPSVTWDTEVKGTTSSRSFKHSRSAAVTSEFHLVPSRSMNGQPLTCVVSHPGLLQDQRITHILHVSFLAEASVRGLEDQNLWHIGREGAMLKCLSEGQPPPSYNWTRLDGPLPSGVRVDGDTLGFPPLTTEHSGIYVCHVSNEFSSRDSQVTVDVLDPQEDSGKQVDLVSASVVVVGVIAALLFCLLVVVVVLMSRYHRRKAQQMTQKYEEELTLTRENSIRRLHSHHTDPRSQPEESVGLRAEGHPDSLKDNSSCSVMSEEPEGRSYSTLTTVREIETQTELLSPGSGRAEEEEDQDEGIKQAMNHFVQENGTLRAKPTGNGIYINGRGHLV
In words: flow cytometry on MDA-MB231 cells transfected with N-terminal Flag-tagged Nectin-4 (FIG. 1).

The target of assay [4] is T4, Nectin-4 extracellular domain Fc fusion recombinant protein (human, UniProt Q96NY8 32-349).
T4 construct: extracellular domain; also called Nec4-VCC; Nectin-4-VCC-Fc; not shown: Fc part
T4 sequence (looked up): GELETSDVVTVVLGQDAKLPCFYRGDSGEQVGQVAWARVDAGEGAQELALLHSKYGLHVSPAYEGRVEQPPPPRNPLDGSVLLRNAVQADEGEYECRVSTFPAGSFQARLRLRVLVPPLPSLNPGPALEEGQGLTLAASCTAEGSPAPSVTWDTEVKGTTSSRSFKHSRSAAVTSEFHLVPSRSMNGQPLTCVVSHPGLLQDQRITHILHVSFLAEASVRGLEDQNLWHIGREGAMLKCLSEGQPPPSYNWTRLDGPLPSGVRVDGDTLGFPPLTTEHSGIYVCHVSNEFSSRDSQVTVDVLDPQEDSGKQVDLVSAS
In words: ELISA, plate coated with Nec4-VCC, peroxidase-conjugated Ch-15A7.5 (FIG. 2).

Assay [5] has as its target T5, Nectin-4 IgV-like domain Fc fusion recombinant protein (human, UniProt Q96NY8 32-147, limits assumed).
T5 construct: domain: IgV-like domain; also called Nec4-V; Nectin-4-V-Fc; not shown: Fc part
T5 sequence (looked up): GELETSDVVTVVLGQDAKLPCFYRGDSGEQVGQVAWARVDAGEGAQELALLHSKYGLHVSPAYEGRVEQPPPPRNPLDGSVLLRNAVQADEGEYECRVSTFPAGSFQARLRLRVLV
The assay is described as follows: ELISA, plate coated with Nec4-V, peroxidase-conjugated Ch-15A7.5 (FIG. 2). (In general: An ELISA detects its analyte on a solid surface through an enzyme-linked reagent.)

Assay [6] has as its target T1, human Nectin-4 on cells (CHO cells …). The assay is described as follows: flow cytometry on normal differentiated human keratinocytes (NHEK), 8 pM-33 nM (FIG. 15); reference antibody of the comparison.

B1: Ch-15A7.5 (chimeric form of the anti-Nectin-4 monoclonal antibody 15A7.5) (antibody, V domains shown)
VH: EVKLVESGGGLVQPGGSRKLSCAASGFTFSNYGMAWVRQAPGKGPEWVAFISNLAYGINYADTVTGRFTISRENAKNTLYLEMRSLRSEDTAMYYCARGARATGWFAYWGQGTLVTVSA
VL: DIVMTQSQKFMSTSIGDRVSVTCKASQNVDTHVAWYQEKPGQSPKALIYSASYRYSGVPDRFTGSGSGTDFTLTISNVQSEDLADYFCQQYNSYPLTFGGGTKLEIK
notes: also called 15A7.5 mAb
As for B1, the binding result in assay [1] is listed as “binds”; in assay [2] it was “no binding (tested: 10 nM)”; in assay [3], “binds”; in assay [4], “binds”; in assay [5], “binds”.

B2: Ch-5A12.2 (chimeric form of the anti-Nectin-4 monoclonal antibody 5A12.2) (antibody, V domains shown)
VH: QIQLQQSGAELVKPGASVTLSCKTSGFTFNSMYISWLKQKPGQSLEWIAWIYAGTGGTRFNQKFTGKVQLTVDTSSSTAYMQFSSLTTDDSAIYYCAIRSGFVPMDYWGQGTSVTVSS
VL: SIVMTQTPKFLLVSAGDRVTITCKASQSVSNDVAWYQQKPGQSPKLLIYYASNRYTGVPDRFTGSGYGTDFTFTISTVQAEDLAVYFCQQDYSSPWTFGGGTKLEIK
notes: also called 5A12.2 mAb
On to B2, for which the binding result in assay [3] and in assay [6] was “binds” in each case.

The values are drawn from patent EP4309676A1 (Emergence Therapeutics AG, dated 2024).
